Where no end group is shown, it is not given here.
Biological target: sodium channel

| Binder | flow of ^22 Na into cells [%] |
| --- | --- |
| RKKWNKWALSR (ends and bridges not checked) [proadrenomedullin N-terminal 10-20 peptide (proAM-N(10-20))] | 70 |
| ARLDVASEFRKKWNKWALSR (ends and bridges not checked) [proadrenomedullin N-terminal 20 peptide (proAM-N20)] | 30 |

From patent US5830703
